In the DeepSol protein solubility set:

Experiment: soluble on expression in E. coli; label from the status in PepcDB or PDB records
In the case of “MGSDKIHHHHHHSCENEFDVSDKADSLISVTVNTLNNQAAYNVGETAQAELWIQRGGLKDASGKVQFVVDPLLLDSLNQEDKTNYELLPENCYEMTNTEFTVDKNELCGYITYHPEKILALSAYNETKYVLPLRLISNDLAINPARNTSFLAFTILEPIVHISNAGVYNINPDLTSTMDIQIGVPFTNKWDILCNLTEDLSLIDEYNQINKVNFTLLPENAYTAPESVTLQEGVSQITASYQLKNNLVPGNYILPIKIGSITASQGGVPNNSLVIDEESNVLFCIVKEGNKINKSGWEVIECSSEHAGNEATYMIDDNESTYWHCKFKNEAGSSVPPFHFIIDMKKEITIAQIDLLNRGDGAANNIKWVEFYASNNNSEWDKIGAGDFNDEGTRATFRYYVKSTKARYLKLIIPEGYGNNCPPAAIRELTVYGLEGNN”, the “soluble on expression in E. coli” value is reported as “not soluble”.
For “MGSDKIHHHHHHSSDDKDEQPILVTNVVMPASGTVFKPGEKVTIMAKGFQDNDEIMFDIRWPLQDEVLHEGYAKGGRGVITEKTATSITFLAPGHWPASTTEILLRRSGQMMSLGKISVADGQAPKDFQLYGIINSRSNTHRPHAIEYINLEKPQTAEIVRLADNQDFSCVVNLPGSWSLSGVWTKDDRRTTGLYDLSMNYWEKPGADQLVTMGIATANSVFGVYQGGDRLFVKTVNVMPYTRMYVPEKPDYGFLLPEGMKAEALSRYPCIQMSDGNILCSADNGDGTFSPVVLNGQNIEEKSIYVGEPIEAVALIPFWIVKPVEGMGTAKYTRVGGYIVSKRNGATITEGDGTEFRLWNPTTKMLDEPFTTFPNAACLVATLVSDDFKKQELYVLFDGSRNGRLIYVYDLLKGSWESLYPGGGFPYSEIVLAR”, the “soluble on expression in E. coli” value was “not soluble”.
For “MGSDKIHHHHHHTVQNAQLSQQHAPCVDNKWPKSRLLSLAGSQFEMTDADRNDMVMRLISCLADTDPELRDAVAFSGLSHWLRANDLTNETVKSLYTKLSGDVRKRKDDPNGVYLPFAILTLSEVARVDRVSPFFEPAERDALSKLAADTMAGIQDYRGFDETIGWRHQVAHSADLLLQLVLNPALSSDDIMELVTSIQHQLSPAGHFYVYGEPERLARPVLYAMLRDDIPDSFWHSQLARWSTPVHIEGWDKAFSSNAGLAERHNRRAFFSALLLGISGSKQPRLLALQPAIQAAMKKLP”, the “soluble on expression in E. coli” value was “not soluble”.
For “MGSDKIHHHHHHVEASYAQRLRQEKGYAYADNCNTKTSLSIKMSMVLLTPTVSSNFEKDSLIYMAKKIHFISNSIVKEINNSDNVSILVLDKEEIISLFKANGILLFRGFDVDVDIFKEFTNLLSIDFINYAGGAFSRRVINGDQTVLSVNDFKSEIKLHGEMYYQKNIPLMLWFFCANPPLEDGETTVCDGRQFFHEISSSTKELFRQKNLKFTVRMSKEDWQKKYKTDDVNQLKEICRNNNTHLKIFDDRSIMLEYISPAIIPSRCGNYQVFINSLLPTKQLSPNILKFEDDSDIPEEVVSELNEIAEKITTEISWRKGDILMIDNTRILHGRRSFADDQRDIYIRLCSPAFSF”, the “soluble on expression in E. coli” value was “not soluble”.
For “MGSDKIHHHHHHVEDLKNLTNQAVEKQPEIVKRFNEMIDSQHLSHAYLLTGAGGIGKKDVAQWVAMRLFCIDLQGSMPCGECEECTRIMSGQHPDVVEIAPDGQSIKVEQVRFLKSEFSKSGVEGARKVFIIEQANKMTTSAANSLLKFIEEPSGEVTAFLLAENRSLMLPTIVSRTEIIELKPLPKDRLIKELTEQNIAETDARILTRLTNDMSEIQTLVDNNWILDAHKALEKWFITATTGDITAFVDVQTRVMALAKDRFYQEKILDLMMLYAMDLLELKFDQETITYEANRRQLQELADQTNVRQLLAVADVLLPLKHQLSQNLNFQSVVEKATIKICNIFKMRGR”, the “soluble on expression in E. coli” value was “not soluble”.
With “MGSDKIHHHHHHVEGLIFQSSEFGTDEIYANMEEYIMQITRDNYSQYAQMVQQMFGKKASSNDPLAQCDYGNFSLRFKPVDINFTKPNWDTIMTKRDKPAMSEEEFDEAIKELARKEFATGKRDDDAYRKLCMQHGETVSPDRKAIYESSMKKTGGKMNAACMFWDSKGNKTLSYNPESRNWKAISTDEEFARARVFTSIYNDELARLKEEYGEKAKGNVSYSKIKVDISAERSKEKNNNEGNTIDLQI” the “soluble on expression in E. coli” value was “not soluble”.
For “MGSDKIHHHHHHVEKFDLENFPVSESAKNMIASVSDGFYDNSYVGKWLYEVMGQEYDTAREIAEDILNQLFPETATWGLMYHEIKWGLPVRENLPYEERRQLIYRKRDYRAPMTPYRMEGYLKTATGFDVRIADINDPGDYGFVAPHPNVFKAYFMGEGTLASKRARAMLNELKQSHTMFTMNDRTEIVSDNRNLEEMNLKKIIFHIAESFWYSDLLDGRKPLDGSSLLYPYMRYNLMLGFKYMLGGFTTPTDADLQKVKFRAEQKTENDVKAGAIRIASDIIFWNTHLLDGSWDLDGSHRLDVTRGYQLGVAIVAMVACAYNKVTDSMKVRSTYGLRSSSDARAAIRSEFEADFWNTVYLDGKLLLDGNAMLEHRGGNKRLEAAVTHHMGIEREDMDVEAQVITKTRNYWFLDGSNALDGKKNLNSIYRKEYIQ”, the “soluble on expression in E. coli” value was “not soluble”.
With “MGSDKIHHHHHHVEPRSLRSRRSSSYYCGELIKADFSQRREFVMRNSLRRWKNEKLAQKLKKVFESKSVRVIYLPDIEMVVEEVHKLIPDGATVSSGGSVTLQETGVMDLLRSGKYEFLDRDSVSEDKERRKIMIKAFESDYYLCSANAITENGEILLLDGSGNRAAAVTFGPEKVIFVAGINKVVEDLDAGIKRIKSIAPMNAKRLNLHTPCATTGFCSDCSSEERICEMYSIIIDSRRRPWRYTIVLIGEELGL” the “soluble on expression in E. coli” value was “not soluble”.
In the case of “MGSDKIHHHHHHVIIESRIEKGKPVVGMETTVFVHGLPRKEAIELFRRAKEISREKGFQLAVIGILKGKIVAGMSEEELEAMMREGADKVGTREIPIVVAEGKNAATTVSATIFLSRRIGIEVVVTGGTGGVHPGRVDVSQDLTEMSSSRAVLVSSGIKSILDVEATFEMLETLEIPLVGFRTNEFPLFFSRKSGRRVPRIENVEEVLKIYESMKEMELEKTLMVLNPVPEEYEIPHDEIERLLEKIELEVEGKEVTPFLLKKLVEMTNGRTLKANLALLEENVKLAGEIAVKLKRS”, the “soluble on expression in E. coli” value is reported as “soluble”.
With “MGSDKIHHHHHHVKEVKPKEDRVVLTKDQEKSLQIFCEWLEAPYSFKPFVMKGFAGSGKTYLSMKLLKKVDQLGLCWTVVAPTHKAVGVLREGLKNESIQPTWFPSTIHRLLRLKLKRQADIEICEKTDQTESSLENLGLVLIDEASMIDSKLLEITLECARCNSTRLVFVGDPAQLPPVGESTSSVFLMKRAVNTELREVVRHQGPVLKLAKVIRDGQIPCMQPPLVKVINSKKGNVGILDRTSWLERAKLALRLSSLEDDHDRARILCYTNRIVDNLVPHARRAIHGEMADQYQVLPGEVLISRKAVMVNASLNVDELGEEPDILISSNREMVVEDVIPNSFDLASLGIHQDFENPLPVIETQVAKVNCDQKEFSLRLMPQIGSKARKDLDLSLNELSNLARERGRKNSASTWKLFFFIRDSFASLGPASVLTIHRSQGSTFGEVFITSDAFWPKDLEFRRRLVYVAVSRASKGVWIVGDNKSKMNQALLEKLLMD” the “soluble on expression in E. coli” value was “not soluble”.
With “MGSDKIHHHHHHVKFRVERDVLAEAVTWTARSLSPRPPVPVLSGLLLKAEAGTVSLSSFDYETSARLEIPADISVEGTILVSGRLLADICRSLPSAPVDVETDGNKVTLTCRRSSFHLATMPEAEYPPLPALPTISGTVPGDSFAQAVSQVIIAASKDDTLPILTGVRMEIEDDLITLLATDRYRLAMREVPWKPVTPGISTSALVKAKTLNEVAKTLGNSGDINLALADDDSRLIGFESGGRTTTSLLVDGDYPKIRSLFPDATPIHATVQTQELVEAVRRVSLVAERNTPVRLAFTDGQLHLDAGTGEDAQASEELEAQLTGDEITVAFNPHYLIEGLSVIETKFVRFSFTTAPKPAMITAQVDADGEDQDDYRYLVMPVRLPN” the “soluble on expression in E. coli” value was “not soluble”.
For “MGSDKIHHHHHHVKIALDPTPFHHSHTLLEFPRVVADLGYKYMQMTPHADFIPFYNHPKADDELVGQLNKACKDVGIEIASVLPVLRWSGPDEDAREAAVRYWKRVIQITVDLGVSTINTEFSGRPEKAEESERAFYRSMEELLPIIEREGLDLLIDPHPDDFVEEGLAAIRVIRGLNSKNVGLVYVASHSFHMKNAPLDIMRAAGDKLRLVHVADTMNHHASHGLRYITNPPGNPVRVHQHLKIGDGDVNWEEFFGGLQEIGFLDREDTVMVSSVFAEDENAAEVSRYQLVTMNNYIATAR”, the “soluble on expression in E. coli” value was “not soluble”.
For “MGSDKIHHHHHHVKTNLEHWVTLQEKGYFENHPFYQERQVNDDAARVEKATPLTKDMKIAIIGCGYGRESASFCRRVRKVYGIDVSWTILAKALERMLADNHVNFTPVLASQWKTILPDGGLDLVYSVVVFQHLTRDLVDDYIGGLKGKLRPGGRFYVQFCDSDTGEADADLRFYEPNVRWTEDDIRILARRHGLDLLSLDSERVTPTASWHWALMEKADDR”, the “soluble on expression in E. coli” value was “not soluble”.
With “MGSDKIHHHHHHVNYIKRAMENTFLRLAKEFPALLLTGPRQTGKTTMLQKLAAEEKIGRNYVTLDDLTERQMAKNDPKMFLQIHKPPVFIDEVQYAPELFSYIKIHIDRHHRPGDFWLTGSQVFKLMDGVQESLAGRVGLLHMSPMSQAESCGADTTPFILDLEQLTRRVRERNPLDTPALYERIFRGGMPALVSGQYTDHWALYSSYISTYLDRDVKEISGTINSLRFMDFITAAAALCGQMLNYKTIADAAGIDQLTAKGWLGILERLGIIFYLHPYANNMLKRMVTKPKLYFYDCGLVAYLTKWSDSATLMNGAMSGAILENFVVSEIIKSYQNYGREAFIYYYRDKDTKEIDILLEDSGKLYPMEIKKTATPQKQLTRVFNVIDKATLERGTGAVLCTTDRLSAFDSENLIIPIWGI” the “soluble on expression in E. coli” value was “not soluble”.
With “MGSDKIHHHHHHVPLLFGTAGVPLSAKERSTEAGVKRVRELQLDAMEVEFVQGVRMGEEKAQKIAQIAVEEKVALSCHGPYWINFNSQEPEKVAASRERLLHSARISKILGVKSVVFHPAFYHQDDPQVVLVRTAGELMKVREILDAEGNDVILRPETTGKPSQLGTLQEVLTLAQAVPGVLPCIDISHLHARSNGRINTYDEFCQVLEAAAESLGDRWVKHVHFHVSGIDYGVKGEKKHLILKESDLRYPELMKAFHTFGVEGLVICESPNLEEDALLLQTTYRTMA” the “soluble on expression in E. coli” value was “not soluble”.
For “MGSDKIHHHHHHVPQRTSFNGSTRPAWKNTTALIRNPKIASILATGGTGMVHAALQSGNPSMGVGAGNGAVYIDHTAFLDRAVEDILLSKRFDNSMVCATENSAVVEAPIYDKWLQMIQDKGAYLVPKKDYQKLADFVFNDKRGVNGPVAGMSARWICEHAGVTLSEGKDVLLFELDPKNIGEKLSSEKLSPLLSVYKAKDREDGIRIVKALLDYQGAGHNAAIQIGSQNDPFIDEYGKAVQASRVLVNQPDALGGIGDIYSDGLRPSLILGTGSWGKNSLSHNLSTSDLLNIKTIAKQRNRPQWIRLPEKIFTKKTSLPIFQMKMSRKSAGPLSSLTRAWSSSTSLTRSMNSWL”, the “soluble on expression in E. coli” value was “not soluble”.
For “MGSDKIHHHHHHVQHDQAPEVYSDLIQMVWALFTPSTVNFFSKGLCANAPFIMEMVDFEALKTVEEDVYLNAYNLTDHKMAIFGKDILDYEHFGATLAYPFIYPPAKVDGKLYLEGAAEDAFNFQGLLEHDEGIRTVVVFDAFGNEGYIQDPPNLWQAWGQNLILPLISLTRHDLAFFEHMLDDWNESHPARQDVELIKVTFPIPPEWLPTALDWSRSNLERMFELGYETGKKFVAEKGVRLGATLPPKPTPAKGRGGAAKKDDDAMFGGASIG”, the “soluble on expression in E. coli” value was “not soluble”.
In the case of “MGSDKIHHHHHHVSSLSFNFAPDFRPLAARMRPRSIAEYIGQAHLLGEGQPLRKALEAGRAHSMMLWGPPGTGKTTLAELIAQYSNAHVERISAVTSGVKEIRAAIEQAKAIAESRGQRTLLFVDEVHRFNKSQQDAFLPFIEDGTVIFIGATTENPSFEINNALLSRARVYLIKRLSNNEIAHIVTQALADTERGLGLRQLEMPESVLIKLAQLCDGDARKALNLLELMSDMVSDNDTFTLEMLVQVAGHQVAGFDKNGDQFYDLISAVHKSIRGSAPDAALYWYCRILEGGGDPLYVARRLLAIASEDVGNADPAAMTIALNAWDCFHRVGPAEGERAIAQAIVYLASAPKSNAVYTAFKAARALARETGQESVPHHLRNAPTQLMKEIGMGEGYRYAHDEPNAYASGENYFPESLKTAQFYFPTERGFEKRIKDKLIQLTQLDQVSENKRYD”, the “soluble on expression in E. coli” value is reported as “not soluble”.
